# Measured values as given in paper PMC9541495, “Understanding the interaction of 14‐3‐3 proteins with hDMX and hDM2: a structural and biophysical study” (The Febs Journal, 2022).
# [ ]: non-standard residue; d: D form. pS = N[C@@H](COP(=O)(O)O)C(=O)O; FAM = 5,6-carboxyfluorescein; Ahx = NCCCCCC(=O)O
# T1: 14‐3‐3σ (human, UniProt P31947 1-248)
# T1 construct: 14-3-3 sigma, human, full-length protein from the pProEx HTb-His-14-3-3 construct (used in the FA assays); Written as the protomer; tag removal is told only for the ∆C proteins; source: E. coli BL21(DE3), purified (Ni2+-NTA, dialysis)
# T1 sequence (looked up): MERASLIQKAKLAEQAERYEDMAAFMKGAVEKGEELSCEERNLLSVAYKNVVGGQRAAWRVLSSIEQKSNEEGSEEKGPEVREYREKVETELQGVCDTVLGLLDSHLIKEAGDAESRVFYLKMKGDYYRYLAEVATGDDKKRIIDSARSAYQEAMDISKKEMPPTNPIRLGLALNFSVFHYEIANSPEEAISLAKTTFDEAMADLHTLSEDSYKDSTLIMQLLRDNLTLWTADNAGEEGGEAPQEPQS
# T2: 14‐3‐3ζ (human, UniProt P63104 1-245)
# T2 construct: 14-3-3 zeta, human, full-length protein from the pProEx HTb-His-14-3-3 construct; Written as the protomer; tag removal is told only for the ∆C proteins; source: E. coli BL21(DE3), purified (Ni2+-NTA, dialysis)
# T2 sequence (looked up): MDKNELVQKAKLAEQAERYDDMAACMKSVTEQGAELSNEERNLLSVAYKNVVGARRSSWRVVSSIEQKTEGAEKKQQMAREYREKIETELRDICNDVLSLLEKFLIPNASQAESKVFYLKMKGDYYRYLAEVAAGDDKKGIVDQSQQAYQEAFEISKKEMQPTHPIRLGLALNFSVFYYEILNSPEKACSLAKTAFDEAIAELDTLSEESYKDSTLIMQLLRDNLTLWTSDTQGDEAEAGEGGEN
# T3: 14‐3‐3ε (human, UniProt P62258 1-255)
# T3 construct: 14-3-3 epsilon, human, full-length protein from the pProEx HTb-His-14-3-3 construct; Written as the protomer; tag removal is told only for the ∆C proteins; source: E. coli BL21(DE3), purified (Ni2+-NTA, dialysis)
# T3 sequence (looked up): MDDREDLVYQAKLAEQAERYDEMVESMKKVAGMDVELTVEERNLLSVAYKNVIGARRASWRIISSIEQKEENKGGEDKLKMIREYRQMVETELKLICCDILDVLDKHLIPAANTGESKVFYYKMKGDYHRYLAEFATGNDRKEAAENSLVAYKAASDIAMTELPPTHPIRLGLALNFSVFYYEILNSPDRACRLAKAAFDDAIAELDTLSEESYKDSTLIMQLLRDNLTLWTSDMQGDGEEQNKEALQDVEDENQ
# T4: 14‐3‐3τ (human, UniProt P27348 1-245)
# T4 construct: 14-3-3 tau/theta, human, full-length protein from the pProEx HTb-His-14-3-3 construct; Written as the protomer; tag removal is told only for the ∆C proteins; also called τ/θ; source: E. coli BL21(DE3), purified (Ni2+-NTA, dialysis)
# T4 sequence (looked up): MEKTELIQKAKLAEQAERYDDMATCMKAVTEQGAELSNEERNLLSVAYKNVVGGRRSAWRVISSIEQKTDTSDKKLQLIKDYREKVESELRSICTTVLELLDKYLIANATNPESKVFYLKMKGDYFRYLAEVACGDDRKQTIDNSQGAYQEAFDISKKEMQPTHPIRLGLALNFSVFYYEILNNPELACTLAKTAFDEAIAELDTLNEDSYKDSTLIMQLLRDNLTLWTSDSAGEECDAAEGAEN
# T5: 14‐3‐3β (human, UniProt P31946 1-246)
# T5 construct: 14-3-3 beta, human, full-length protein from the pProEx HTb-His-14-3-3 construct; Written as the protomer; tag removal is told only for the ∆C proteins; source: E. coli BL21(DE3), purified (Ni2+-NTA, dialysis)
# T5 sequence (looked up): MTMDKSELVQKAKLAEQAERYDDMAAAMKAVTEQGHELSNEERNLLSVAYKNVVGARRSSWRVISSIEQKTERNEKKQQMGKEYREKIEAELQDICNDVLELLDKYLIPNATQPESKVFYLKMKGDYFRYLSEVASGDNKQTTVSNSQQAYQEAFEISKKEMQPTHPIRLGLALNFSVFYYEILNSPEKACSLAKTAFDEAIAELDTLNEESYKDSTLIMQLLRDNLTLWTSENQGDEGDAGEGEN
# B1: FAM‐Ahx‐hDMX_(335‐373) ^pSer342/pSer367 (peptide)
# peptide: {FAM-Ahx}-SKLTHSL[pS]TSDITAIPEKENEGNDVPDCRRTI[pS]APVVRP-NH2
# notes: hDMX (human double minute 4 protein, hDM4), human, residues 335-373; Tracer form used in the FA assays; source: synthetic peptide (Fmoc SPPS on Rink amide ProTide resin, HPLC purified)
# B2: FAM‐Ahx‐hDM2_(160‐192) ^pSer166/pSer186 (peptide)
# peptide: SRRRAISETEENSDELSGERQRKRHKSDSISLS
# modifications: phosphoserine at 166 and at 186; N-terminal FAM-Ahx (5,6-carboxyfluorescein on an aminohexanoic acid linker); C-terminal amide
# notes: hDM2 (human double minute 2 protein), human, residues 160-192; Tracer form used in the FA assays; source: synthetic peptide (Fmoc SPPS on Rink amide ProTide resin, HPLC purified)
# What was measured:
# [1] = biological target: the molecule itself; assay: AUC; sedimentation velocity; 14 μM 14-3-3η alone or with 7 μM or 14 μM hDMX pSer342/pSer367 peptide; 10 mM HEPES, 150 mM NaCl, pH 7.4; 25 °C; c(s) by SEDFIT
# [2] = biological target: B2; assay: fluorescence polarisation; fluorescence anisotropy, direct titration: 14-3-3 protein titrated (1/2 dilution series) against 50 nM FAM-Ahx tracer peptide; 10 mM HEPES, 150 mM NaCl, 0.1% Tween 20, 0.1% BSA, pH 7.4; 384 well plates, triplicates; protein concentration as 14-3-3 monomer; 1:1 fit, biphasic curves fitted as two separate 1:1 events (Kd1, Kd2); details: both partners purified
# [3] = biological target: B1; assay: as above; details: both partners purified
# 14‐3‐3σ = biological target: T1, 14‐3‐3σ; assay: as above; details: both partners purified
# 14‐3‐3ζ = biological target: T2, 14‐3‐3ζ; assay: as above; details: both partners purified
# 14‐3‐3ε = biological target: T3, 14‐3‐3ε; assay: as above; details: both partners purified
# 14‐3‐3τ = biological target: T4, 14‐3‐3τ; assay: as above; details: both partners purified
# 14‐3‐3β = biological target: T5, 14‐3‐3β; assay: as above; details: both partners purified
Binder,stoichiometry N [1],Kd1 (first binding event) [2] [µM],Kd1 (first binding event) [3] [µM],binding result (14‐3‐3σ),binding result (14‐3‐3ζ),binding result (14‐3‐3ε),binding result (14‐3‐3τ),binding result (14‐3‐3β)
"14‐3‐3η (natural protein, human, UniProt Q04917 1-246, looked up, 14-3-3 eta, human, full-length protein from the pProEx HTb-His-14-3-3 construct; Captured on an NTA chip in SPR; source: E. coli BL21(DE3), purified (Ni2+-NTA, dialysis)) MGDREQLLQRARLAEQAERYDDMASAMKAVTELNEPLSNEDRNLLSVAYKNVVGARRSSWRVISSIEQKTMADGNEKKLEKVKAYREKIEKELETVCNDVLSLLDKFLIKNCNDFQYESKVFYLKMKGDYYRYLAEVASGEKKNSVVEASEAAYKEAFEISKEQMQPTHPIRLGLALNFSVFYYEIQNAPEQACLLAKQAFDDAIAELDTLNEDSYKDSTLIMQLLRDNLTLWTSDQQDEEAGEGN",2,0.05 ± 0.012,0.03 ± 0.006,–,–,–,–,–
"14‐3‐3γ (natural protein, human, UniProt P61981 1-247, looked up, 14-3-3 gamma, human, full-length protein from the pProEx HTb-His-14-3-3 construct; Written as the protomer; tag removal is told only for the ∆C proteins; source: E. coli BL21(DE3), purified (Ni2+-NTA, dialysis)) MVDREQLVQKARLAEQAERYDDMAAAMKNVTELNEPLSNEERNLLSVAYKNVVGARRSSWRVISSIEQKTSADGNEKKIEMVRAYREKIEKELEAVCQDVLSLLDNYLIKNCSETQYESKVFYLKMKGDYYRYLAEVATGEKRATVVESSEKAYSEAHEISKEHMQPTHPIRLGLALNYSVFYYEIQNAPEQACHLAKTAFDDAIAELDTLNEDSYKDSTLIMQLLRDNLTLWTSDQQDDDGGEGNN",–,0.089 ± 0.01,0.091 ± 0.015,–,–,–,–,–
B1,–,–,–,binds,binds,binds,binds,–
B2,–,–,–,binds,binds,binds,binds,binds
